# Results: doi:10.1101/2024.12.22.629684 (bioRxiv, 2024)
# T1: Yku80 (S. cerevisiae, UniProt Q04437 1-629)
# T1 sequence (looked up): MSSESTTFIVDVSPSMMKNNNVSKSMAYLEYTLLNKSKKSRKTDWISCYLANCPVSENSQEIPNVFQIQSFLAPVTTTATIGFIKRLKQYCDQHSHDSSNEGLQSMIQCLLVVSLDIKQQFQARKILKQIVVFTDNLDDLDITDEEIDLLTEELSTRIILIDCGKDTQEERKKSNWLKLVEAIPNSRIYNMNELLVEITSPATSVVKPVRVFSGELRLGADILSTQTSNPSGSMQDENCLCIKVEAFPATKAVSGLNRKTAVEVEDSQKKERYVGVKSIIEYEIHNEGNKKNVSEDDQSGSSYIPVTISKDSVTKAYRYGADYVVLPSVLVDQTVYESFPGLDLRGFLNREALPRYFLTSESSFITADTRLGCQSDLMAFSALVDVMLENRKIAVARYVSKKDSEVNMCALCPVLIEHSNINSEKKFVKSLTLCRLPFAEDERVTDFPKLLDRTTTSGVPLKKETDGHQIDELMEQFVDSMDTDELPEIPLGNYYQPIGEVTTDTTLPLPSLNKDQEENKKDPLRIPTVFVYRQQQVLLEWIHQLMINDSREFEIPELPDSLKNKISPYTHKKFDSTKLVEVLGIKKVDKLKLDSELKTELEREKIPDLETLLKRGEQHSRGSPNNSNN
# Target: T1, Yku80
# Experiment: cryo-EM structure
binder,measurement,value
"Yku70 (natural protein, S. cerevisiae, UniProt P32807 1-602, looked up) MRSVTNAFGNSGELNDQVDETGYRKFDIHEGILFCIELSETMFKESSDLEYKSPLLEILESLDELMSQLVITRPGTAIGCYFYYCNREDAKEGIYELFPLRDINATFMKKLNDLLEDLSSGRISLYDYFMFQQTGSEKQVRLSVLFTFMLDTFLEEIPGQKQLSNKRVFLFTDIDKPQEAQDIDERARLRRLTIDLFDNKVNFATFFIGYADKPFDNEFYSDILQLGSHTNENTGLDSEFDGPSTKPIDAKYIKSRILRKKEVKRIMFQCPLILDEKTNFIVGVKGYTMYTHEKAGVRYKLVYEHEDIRQEAYSKRKFLNPITGEDVTGKTVKVYPYGDLDINLSDSQDQIVMEAYTQKDAFLKIIGFRSSSKSIHYFNNIDKSSFIVPDEAKYEGSIRTLASLLKILRKKDKIAILWGKLKSNSHPSLYTLSPSSVKDYNEGFYLYRVPFLDEIRKFPSLLSYDDGSEHKLDYDNMKKVTQSIMGYFNLRDGYNPSDFKNPLLQKHYKVLHDYLLQIETTFDENETPNTKKDRMMREDDSLRKLYYIRNKILESEKSEDPIIQRLNKYVKIWNMFYKKFNDDNISIKEEKKPFDKKPKFNI",binding result,binds
